Data set [1] concerns the molecule itself. The data set is described as follows: SEC-MALS. A general note: Size exclusion chromatography separates by hydrodynamic size, large species first.
Data set [2] deals with the molecule itself. The data set is described as follows: AUC.

B1: TRIM21 coiled-coil (T21CC235; residues 129-235) (domain or fragment, UniProt P19474 129-235, looked up)
chain: EEAAQEYQEKLQVALGELRRKQELAEKLEVEIAIKRADWKKTVETQKSRIHAEFVQQKNFLVEEEQRQLQELEKDEREQLRILGEKEAKLAQQSQALQELISELDRR
B1: in data set [1], the stoichiometry N (in general, the number of molecules, sites or subunits per partner or assembly) was found to be 2.

B2: TRIM21 RING-Box-Coiled-Coil (T21RBCC; residues 1-235) (domain or fragment, UniProt P19474 1-235, looked up)
chain: MASAARLTMMWEEVTCPICLDPFVEPVSIECGHSFCQECISQVGKGGGSVCPVCRQRFLLKNLRPNRQLANMVNNLKEISQEAREGTQGERCAVHGERLHLFCEKDGKALCWVCAQSRKHRDHAMVPLEEAAQEYQEKLQVALGELRRKQELAEKLEVEIAIKRADWKKTVETQKSRIHAEFVQQKNFLVEEEQRQLQELEKDEREQLRILGEKEAKLAQQSQALQELISELDRR
Take B2: the binding result in data set [2] is listed as “binds”.
